Results as given in patent publication US20240109973A1 (Memorial Sloan Kettering, published 2024).
Each block holds one binder with its values, some of them ahead of it.

Legend:
[1] = target: T1, human CD40 on cells (human, UniProt P25942 21-277); assay: cell-based or functional assay
[2] = target: T2, recombinant human CD40 (residues 21-192) fused to a 6×His-tag at the carboxy-terminus (human, UniProt P25942 21-192); assay: BLI, soluble monomeric human CD40-His
T2 construct: range 21-192; also called Human CD40-His; soluble, monomeric human CD40-His
T2 sequence (P25942 other isoform, or with tags, fused parts or gaps limits assumed): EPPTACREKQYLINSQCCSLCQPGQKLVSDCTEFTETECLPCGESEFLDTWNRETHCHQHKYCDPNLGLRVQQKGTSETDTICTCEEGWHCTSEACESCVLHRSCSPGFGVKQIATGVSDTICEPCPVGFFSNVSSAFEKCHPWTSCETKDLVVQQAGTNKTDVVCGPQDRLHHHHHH
Description: Dissociation constants (KD), on-rates (kon) and off-rates (koff) for the 10F12 chimeric mAb were determined by BLI using soluble, monomeric human CD40-His (Table 1).

[3] = target: T1, human CD40 on cells; assay: cell-based or functional assay; remark: listed apart in the source
[4] = target: T2, recombinant human CD40 (residues …); assay: BLI, Octet Red96e
Description: (§1) Antibody TDI-Y-003 produced in stable CHO pools was tested in a series of binding and functional assays in vitro as well as an in vivo study in a disease-relevant animal model. Affinity to human CD40 was measured by BLI using an Octet Red96e. […] The slower off-rate seen for this interaction is likely a result of the avidity between the bivalent TDI-Y-003 IgG and the dimeric CD40-Fc.

[5] = target: T3, Cyno CD40-His (cynomolgus monkey, UniProt G7PG38 21-192); assay: BLI, Octet Red96e
T3 construct: also called monomeric cynomolgus monkey CD40; not shown: His tag
Description: (§2) Affinity to cynomolgus monkey and mouse CD40 was measured by BLI using an Octet Red96e.

[6] = target: T4, Mouse CD40-His (mouse, UniProt P27512 24-192, limits assumed); assay: BLI, Octet Red96e
T4 construct: also called monomeric mouse CD40; not shown: His tag
T4 sequence (looked up): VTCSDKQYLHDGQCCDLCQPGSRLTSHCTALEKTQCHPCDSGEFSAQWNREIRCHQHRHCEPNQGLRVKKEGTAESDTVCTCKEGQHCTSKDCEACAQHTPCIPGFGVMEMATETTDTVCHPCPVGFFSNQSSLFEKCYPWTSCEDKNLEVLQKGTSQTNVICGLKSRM
Description: as §2

[7] = target: T1, human CD40 on cells; assay: cell-based or functional assay; remark: listed apart in the source
[8] = target: T1, human CD40 on cells; assay: flow cytometry, Raji cells (endogenous CD40)
Description: (§3) To assess the binding of TDI-Y-003 to cell surface-bound CD40, HEK293 overexpressing CD40 as well as Raji cells (B-lymphocytes) and primary human dendritic cells, which express endogenous CD40, were used. TDI-Y-003 bound HEK293-CD40 and Raji cells with EC₅₀ values in the sub-nanomolar range at 0.44 and 0.77 nM, respectively (Table 5).

[9] = target: T1, human CD40 on cells; assay: flow cytometry, HEK293 cells overexpressing CD40
Description: as §3

[10] = target: T1, human CD40 on cells; assay: flow cytometry, primary human dendritic cells (endogenous CD40)
Description: as §3

[11] = target: T5, human CD40-Fc (human, UniProt P25942 21-192); assay: BLI, Octet Red96e; avidity between bivalent IgG and dimeric CD40-Fc
T5 construct: range 21-192; also called dimeric CD40-Fc; not shown: human Fc fragment fused to the carboxy-terminus
T5 sequence (P25942 21-192): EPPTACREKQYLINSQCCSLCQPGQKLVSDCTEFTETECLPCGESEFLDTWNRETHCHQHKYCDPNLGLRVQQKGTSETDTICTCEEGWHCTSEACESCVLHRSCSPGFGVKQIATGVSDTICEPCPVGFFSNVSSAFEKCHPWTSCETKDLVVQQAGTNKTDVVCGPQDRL
Description: as §1

[12] = target: T1, human CD40 on cells; assay: flow cytometry competition on HEK293 cells stably expressing CD40; competitor HA-tagged CD40 ligand detected with PE anti-HA
Description: FIG. 4. Competitive binding of TDI-Y-003 with CD40 ligand to CD40 stably expressed on HEK293 cells. HEK293 cells stably expressing CD40 were co-incubated with either TDI-Y-003 or isotype control antibody and HA-tagged CD40 ligand. CD40 ligand binding was assessed by flow cytometry with a PE labeled anti-HA antibody. Results are normalized to secondary antibody only controls (MFI ratio).
Competitive binding of TDI-Y-003 with CD40L for binding to CD40 was assessed using HEK293 cells stably expressing CD40. Cells were co-incubated with HA tagged CD40 ligand and TDI-Y-003 or isotype control at the indicated concentrations and analyzed for CD40 ligand binding by flow cytometry (FIG. 4).

T1 sequence (P25942 21-277): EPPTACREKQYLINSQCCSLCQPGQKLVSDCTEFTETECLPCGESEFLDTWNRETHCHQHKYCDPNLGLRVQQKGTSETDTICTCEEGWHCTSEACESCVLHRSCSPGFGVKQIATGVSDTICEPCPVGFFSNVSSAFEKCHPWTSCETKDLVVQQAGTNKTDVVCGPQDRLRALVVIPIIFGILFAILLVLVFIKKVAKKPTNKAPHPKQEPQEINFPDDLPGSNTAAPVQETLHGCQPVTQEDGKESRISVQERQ

EC50 for agonist activity (HEK293-CD40 NF-κB-Luciferase reporter system) [1]: 0.333 nM | Max Stim [% CD40L] (HEK293-CD40 NF-κB-Luciferase reporter system) [1]: 63.4 % CD40L | Kd [2]: 27.1 nM | koff [2]: 0.0071 s⁻¹ | kon [2]: 262000 M⁻¹ s⁻¹
B1: 10F12 chimeric mAb, human IgG1 (antibody, V domains shown)
VH: QVQLKQSGPGLVQPSQSLSITCTVSGFSLTTYGLHWVRQSPGKGLEWLGVIWRGGNTDYNAAFMSRLSITKDNSKSQVFFKMNSLQADDTAIYYCAKNSYYGNGGHAMDYWGQGTSVTVSS
VL: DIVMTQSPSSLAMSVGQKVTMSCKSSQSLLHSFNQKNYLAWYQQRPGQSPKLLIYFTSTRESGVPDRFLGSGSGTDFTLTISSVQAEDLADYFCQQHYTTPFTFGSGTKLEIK
notes: Mouse variable regions fused to human constant regions of the IgG1 subclass; Expressed in HEK293 cells; also called 10-F12 (Human IgG1)

EC50 for agonist activity (HEK293-CD40 NF-κB-Luciferase reporter system) [1]: 0.01 nM | Max Stim [% CD40L] (HEK293-CD40 NF-κB-Luciferase reporter system) [1]: 96.5 % CD40L | Kd [2]: 26.5 nM | koff [2]: 0.00911 s⁻¹ | kon [2]: 344000 M⁻¹ s⁻¹
B2: 10F12 chimeric mAb, human IgG2 (antibody, V domains shown)
VH: B1 VH
VL: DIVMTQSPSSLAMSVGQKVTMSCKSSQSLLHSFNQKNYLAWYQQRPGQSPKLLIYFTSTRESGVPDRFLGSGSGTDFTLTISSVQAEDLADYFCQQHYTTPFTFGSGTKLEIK
notes: Mouse variable regions fused to human constant regions of the IgG2 subclass; Expressed in HEK293 cells; also called 10-F12 (Human IgG2); 10-F12 hIgG2

EC50 in agonist assay (HEK293 NF-kB-luciferase reporter line stably expressing CD40) [3]: 2.14 nM
B3: TDI-Y-003 F(ab′)2 fragment generated by pepsin cleavage (other)
heavy: QVQLQESGPGLVKPSETLSLTCTVSGFSLTTYGLHWIRQPPGKGLEWIGVIWRGGNTDYNPSLKSRVTISKDTSKNQVSLKLSSVTAADTAVYYCAKNSYYGQGGHAMDYWGQGTLVTVSSASTKGPSVFPLAPCSRSTSESTAALGCLVKDYFPEPVTVSWNSGALTSGVHTFPAVLQSSGLYSLSSVVTVPSSNFGTQTYTCNVDHKPSNTKVDKTVERKCCVECPPCPAPPVAGPSVFLFPPKPKDTLMISRTPEVTCVVVDVSHEDPEVQFNWYVDGVEVHNAKTKPREEQFNSTFRVVSVLTVVHQDWLNGKEYKCKVSNKGLPAPIEKTISKTKGQPREPQVYTLPPSREEMTKNQVSLTCLVKGFYPSDIAVEWESNGQPENNYKTTPPMLDSDGSFFLYSKLTVDKSRWQQGNVFSCSVMHEALHNHYTQKSLSLSPG
light: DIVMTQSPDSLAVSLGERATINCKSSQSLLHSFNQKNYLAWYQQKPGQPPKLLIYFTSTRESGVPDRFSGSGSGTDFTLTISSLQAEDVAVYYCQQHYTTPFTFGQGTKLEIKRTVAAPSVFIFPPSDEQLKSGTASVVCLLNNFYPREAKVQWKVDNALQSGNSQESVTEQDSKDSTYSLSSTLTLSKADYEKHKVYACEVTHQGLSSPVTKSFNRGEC

EC50 for agonist activity (HEK293-CD40 NF-κB-Luciferase reporter system) [1]: 3.58 nM | Max Stim [% CD40L] (HEK293-CD40 NF-κB-Luciferase reporter system) [1]: 100 % CD40L | EC50 in agonist assay (HEK293 NF-kB-luciferase reporter line stably expressing CD40) [3]: 9.62 nM
B4: human CD40L (ligand, UniProt P29965 113-261, looked up)
chain: MQKGDQNPQIAAHVISEASSKTTSVLQWAEKGYYTMSNNLVTLENGKQLTVKRQGLYYIYAQVTFCSNREASSQAPFIASLCLKSPGRFERILLRAANTHSSAKPCGQQSIHLGGVFELQPGASVFVNVTDPSQVSHGTGFTSFGLLKL

Kd [4]: 40 nM | koff [4]: 0.048 s⁻¹ | kon [4]: 1.2e+06 M⁻¹ s⁻¹ | Kd [5]: 48 nM | koff [5]: 0.0471 s⁻¹ | kon [5]: 977000 M⁻¹ s⁻¹ | binding result [6]: no binding (tested: 1.7 µM) | EC50 in agonist assay (HEK293 NF-kB-luciferase reporter line stably expressing CD40) [3]: 0.64 nM | EC50 in DC activation assay, marker CD80 [7]: 2 nM | EC50 in DC activation assay, marker CD86 [7]: 5.5 nM | EC50 in DC activation assay, marker HLA-ABC [7]: 2.5 nM | EC50 in DC activation assay, marker HLA-DR [7]: 1.7 nM | EC50 [8]: 0.77 nM | EC50 [9]: 0.44 nM | EC50 [10]: 3.85 nM | Kd [11]: 1.2 nM | koff [11]: 0.0013 s⁻¹ | kon [11]: 1e+06 M⁻¹ s⁻¹ | IC50 [12]: 1.07 nM
B5: TDI-Y-003 (antibody, human IgG2, kappa, V domains shown)
VH: QVQLQESGPGLVKPSETLSLTCTVSGFSLTTYGLHWIRQPPGKGLEWIGVIWRGGNTDYNPSLKSRVTISKDTSKNQVSLKLSSVTAADTAVYYCAKNSYYGQGGHAMDYWGQGTLVTVSS
VL: DIVMTQSPDSLAVSLGERATINCKSSQSLLHSFNQKNYLAWYQQKPGQPPKLLIYFTSTRESGVPDRFSGSGSGTDFTLTISSLQAEDVAVYYCQQHYTTPFTFGQGTKLEIKR
notes: also called Hu10F12 (N103Q); hu10F12 (N103Q)

EC50 in agonist assay (HEK293 NF-kB-luciferase reporter line stably expressing CD40) [3]: 112 nM
B6: TDI-Y-003 Fab fragment generated by papain cleavage (Fab, V domains shown)
VH: B5 VH
VL: B5 VL
